Tests used:
[1] = target: T1, soluble human ASGR-1 carbohydrate binding domain (CBD; amino acid residues 154-281; N-terminal 6xHis tag) (human, UniProt P07306 154-281); test: Octet BLI, mAb on AR2G tips, 1:1 fit
T1 construct: also called ASGR-1 CBD
T1 sequence: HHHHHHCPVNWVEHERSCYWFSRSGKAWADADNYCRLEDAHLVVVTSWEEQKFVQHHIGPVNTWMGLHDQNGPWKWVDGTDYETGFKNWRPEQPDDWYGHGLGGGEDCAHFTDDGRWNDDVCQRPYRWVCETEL
Source text: To quantitate the binding affinity of specific antibodies for ASGR-1 (either purified from hybridoma supernatants or made recombinantly), association and dissociation rates can be measured using a ForteBio Octet instrument. […] Experimental kinetic results were globally fit to a 1:1 binding model in order to determine the association and dissociation rate constants as well as the equilibrium dissociation constant. Association and dissociation times were chosen to ensure that curvature was present during association curves and measured dissociation levels dropped at least 5% from starting levels. All Octet buffers contained 10 mM Tris (pH7.5), 150 mM NaCl, 1 mM CaCl₂), 0.10 mg/ml BSA and 0.13% Triton X-100. Octet assays were run at 27° C. Because this assay only measures binding to the ASGR-1 CBD, antibodies that recognize epitopes partially or entirely outside the CBD and/or recognize ASGR-1 in the context of a native ASGR complex, for example, as could occur on cell membranes, may not score as positive in this assay.

human ASGR-1 (wild type) [2] = target: T2, human ASGR-1 (wild type) (human, UniProt P07306 1-291); test: flow cytometry, CHO-S:huASGR-1 cells, 11-point titration
T2 construct: also called wt ASGR1; huASGR-1
T2 sequence: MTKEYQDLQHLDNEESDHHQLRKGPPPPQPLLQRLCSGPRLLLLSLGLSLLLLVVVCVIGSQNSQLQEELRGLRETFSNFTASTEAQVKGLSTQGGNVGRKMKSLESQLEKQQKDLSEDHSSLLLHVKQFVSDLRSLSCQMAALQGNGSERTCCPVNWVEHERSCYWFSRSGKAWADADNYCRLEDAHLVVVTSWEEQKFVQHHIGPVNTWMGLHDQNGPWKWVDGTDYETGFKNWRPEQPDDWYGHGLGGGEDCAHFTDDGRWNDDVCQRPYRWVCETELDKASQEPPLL
Procedure: CHO—S stable high-expressing cell line were developed for both human ASGR-1 as well as mouse ASGR-1. A typical 384 well plate multiplex flow cytometery-based cell binding method is described as followed: Parental CHO—S cells and CHO—S:huASGR-1 cells were respectively labeled using a CellTrace CFSE Cell Proliferation Kit (ThermoFisher Catalog #C34554) and CellTrace Violet Cell Proliferation Kit (ThermoFisher Catalog#C34557) CHO—S:muASGR-1 were not labeled. 20 ul of cells at 4C were added to duplicate wells of the 384 well plate. The cells were equally mixed from all three cell lines (30K cells/well). Then 20 ul of the ASGR-1 antibodies (either purified from hybridoma supernatants or made recombinantly) were added in an 11-point dose response using a 1:2 fold serial dilution starting at 100 nM. The cells and antibodies were incubated for 30 min at 4C and then spun down and washed twice with FACS buffer containing 1 mM CaCl2. 30 ul of anti-hulgG-APC secondary antibodies were then added at a 1:1000 dilution) for 30 min at 4C and then washed once with the same buffer. 60 ul of PI (1:1000) was added and then the cells were read by a core flow cytometry facility. The cells were gated first for live cells, then for single cells and finally for the cell dyes to separate the mixed cells into the three different cell populations. Histograms of signal vs count representing the binding profile of each antibody at each antibody concentration were automatically analyzed for the median of the binding signal and then a binding graph was made with log 10 antibody concentration in nM on the X axis with […] from the duplicate wells on the Y-axis. The binding curves were fit with a standard four parameter sigmoidal binding curve and EC50's reported for all graphs with full curves.

human ASGR-1 (wild type) [3] = target: T2, human ASGR-1 (wild type); test: FACS, transfected CHO-S cells, mAb 5 ug/ml
Summary of the method: (§1)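 Transiently transfected CHO-S cells expressing wild-type or mutant hASGR-1 incubated with antibody at 5 ug/ml, 1 h at 4 °C; bound antibody detected by Alexa Fluor 647 anti-Fc plus 7-AAD, by flow cytometry. Binding normalized to expression using an unaffected antibody (65C12), then to wild type; hits defined as >3× IQR above third quartile.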

[4] = target: T3, human ASGR-1 mutant construct H203 (human, UniProt P07306 1-291); test: FACS, transfected CHO-S cells, mAb 5 ug/ml
T3 construct: Arg/Glu scanning: non-arginine residues were changed to arginine; Transiently expressed on CHO-S cells
T3 sequence: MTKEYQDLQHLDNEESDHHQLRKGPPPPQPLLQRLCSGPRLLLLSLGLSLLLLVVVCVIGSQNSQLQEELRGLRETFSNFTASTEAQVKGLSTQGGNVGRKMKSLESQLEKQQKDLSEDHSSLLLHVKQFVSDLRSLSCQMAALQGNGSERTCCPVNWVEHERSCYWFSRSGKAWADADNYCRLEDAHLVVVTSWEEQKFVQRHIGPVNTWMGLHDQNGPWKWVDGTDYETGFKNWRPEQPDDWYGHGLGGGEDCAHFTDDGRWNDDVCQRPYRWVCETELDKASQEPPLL
Summary of the method: as §1

B1: 5E5 (antibody, V domains shown)
VH: QVQLVESGGGVVQPGRSLRLSCAASGFTFSNYVMHWVRQAPGKGLEWVAVIWYDGSNKYYADSVKGRFTISRDNSKNTLYLQMNSLRAEDTAVYYCTREVYSSGWYDYGMDVWGQGTTVTVSS
VL: DIQMTQSPSSLSASVGDRVTITCRASQGIRNDLGWYQQKPGKAPKRLIYAASSLQSGVPSRFSGSGSGTEFTLTISSLQPEDFATYYCLQHYSYPRTFGQGTKVEVK
notes: mAb
B1 was tested, and the Kd [1] was 7.6 nM, the EC50 (human ASGR-1 (wild type) [2]) was 3.8 nM and the “FACS Binding Geomean” value (human ASGR-1 (wild type) [3]) was 40700. The “FACS Binding Geomean” value [4] was 12600.

B2: 7G4 (antibody, V domains shown)
VH: QVQLVESGGGVVQPGRSLRLSCAASGFTFNNYVMHWVRQAPGKGLEWVAVIWYDGSNKYYADSVKGRFTISRDNSKNTLYLQMTSLRAEDTAVYYCAREKYSSNWYDYGMDVWGQGTTVTVSS
VL: DIQMTQSPSSLSASVGDRVTITCRASQGIRNDLGWYQQRPGKAPKRLIYAASSLQSGVPSRFSGSGSGTEFTLTISSLQPEDSATYYCLHQYSYPRTFGQGTKVEIK
notes: mAb
For B2, the Kd [1] was 0.9 nM, the EC50 (human ASGR-1 (wild type) [2]) was 0.69 nM and the “FACS Binding Geomean” value (human ASGR-1 (wild type) [3]) was 48500. The “FACS Binding Geomean” value [4] was 18500.

B3: 22G5 (antibody, V domains shown)
VH: EVQLLESGGGLVQPGGSLRLSCAASGFTFSSYAMNWVRQAPGMGLEWVSVISRSGGYTYYADSVKGRFTISRDNSKNTLYLQMNSLRAEDTAVYYCASRLAVAGSEAFDIWGQGTLVTVSS
VL: DIQMTQSPSSLSASVGDRVTITCRASQNISSYLNWYQQKQGKAPKLLIYAASSLQNGVPSRFSGRGSGTDFTLTISSLQPEDFATYYCQQSYRTPLFTFGPGTKVDFK
notes: mAb
For B3, the Kd [1] was 1.4 nM, the EC50 (human ASGR-1 (wild type) [2]) was 7.2 nM and the “FACS Binding Geomean” value (human ASGR-1 (wild type) [3]) was 45000. The “FACS Binding Geomean” value [4] was 15100.

B4: 184E7 (antibody, V domains shown)
VH: QVQLVQSGAEVKTPGASVKVSCRASGYTFTSYNMHWVRQVPGQGLEWMGWINPNNGGSNYTQKFQGRVTMTRDTSISTAYMELSRLRSDDTAVYYCARKFGDWGQGTLVTVSS
VL: DIQMTQSPSSRSASIGERVTITCRASQGISNYLAWIQQKPGTAPKSLIYAASSLQSGVSSRFSGSGFGTDFTITISSVQREDFATYYCQQYNGYPFTFGHGTKVDIK
notes: mAb
With B4 the Kd [1] was 0.3 nM, the EC50 (human ASGR-1 (wild type) [2]) was 1 nM and the “FACS Binding Geomean” value (human ASGR-1 (wild type) [3]) was 42700. The “FACS Binding Geomean” value [4] was 18400.

B5: 7E11 (antibody, V domains shown)
VH: QVQLVESGGGVVQPGRSLRLSCAASGFTFSSFGMHWVRQAPGKGLEWVAIIWHDGSNKYYADSVKGRFTISRDNSNNTLYLQMSSLRAEDTAVYYCARDLSMGGMDVWGQGTTVTVSS
VL: DIQMTQSPSSLSASVGDRVTIACRASQNIISYLNWYQQKPGKAPKFLIYTASSLQSGVPSRFSGSGSGTDFTLTISSLQPEDFAIYYCQQTYSTPLTFGGGTKVEIK
notes: mAb
For B5, the Kd [1] was 1.6 nM, the EC50 (human ASGR-1 (wild type) [2]) was 1.4 nM and the “FACS Binding Geomean” value (human ASGR-1 (wild type) [3]) was 45500. The “FACS Binding Geomean” value [4] was 14700.

B6: 56E5 (antibody, V domains shown)
VH: QVQLVQSGAEVKKPGASVKVSCQASGYTFTGYHMHWVRQAPGQGLEWMGWINPNNNATNYAQKFQGRVTMTRDTSISTAYMELRRLRSDDTAVYHCARDGTSSFDYWGQGTLVTVSS
VL: DIQMTQSPSSVSASVGDRVTITCRASQGIRKWLAWYQQKPGKAPKLLIYAASSLQSGVPSRFSGSGSGTDFTLTISSLQPEDFATYYCQQANSFPFTFGPGTKVDIK
notes: mAb
With B6 the Kd [1] was 0.5 nM, the EC50 (human ASGR-1 (wild type) [2]) was 1.1 nM and the “FACS Binding Geomean” value (human ASGR-1 (wild type) [3]) was 42600. The “FACS Binding Geomean” value [4] was 20300.

B7: 4A2 (antibody, V domains shown)
VH: QVQLVQSGTEVKKPGASVKVSCKASGYTFTNYDINWVRQATGQGLEWMGWMHPNSGNTGYAQKFQGRVTLTRNTSISTAYMELSSLRSEDTAVYYCASSSGWYYFDYWGQGTLVTVSS
VL: DIVMTQSPDSLAVSLGERATINCKSSQSILHSSNNNNYLAWFQQKPGQPPKLLLYWASTRESGVPDRFSGSGSGTDFTLTISSLQPEDVAVYYCQQYYNTPVTFGPGTKVGIK
notes: mAb
B7 was tested, and the Kd [1] was 0.06 nM, the EC50 (human ASGR-1 (wild type) [2]) was 0.82 nM and the “FACS Binding Geomean” value (human ASGR-1 (wild type) [3]) was 41100. The “FACS Binding Geomean” value [4] was 18900.

B8: 25A4 (antibody, V domains shown)
VH: QVLLVQSGAEVKRPGASVKVSCKASGYTFTNYDINWVRQATGQGLEWMGWMYPNSGNTGYAQKFQGRVTMTRNTSISTAYMELSSLRSEDTAVYYCASSSGWYYFDYWGQGTLVTVSS
VL: DIVMTQFPDSLAVSLGERATIKCKSSQSVLYSSHNNNYLAWYQQKPGQPPKLLLYWASTRESGVPDRFSGSGSGTEFTLTISSLEAEDVAVYYCQQYYSTPPTFGQGTKVEIK
notes: mAb
In the case of B8, the Kd [1] is reported as 0.03 nM, the EC50 (human ASGR-1 (wild type) [2]) is reported as 1.6 nM and the “FACS Binding Geomean” value (human ASGR-1 (wild type) [3]) is reported as 55600. For the same binder, the “FACS Binding Geomean” value [4] was 20000.

B9: 26C4 (antibody, V domains shown)
VH: QVQLVQSGAEVKKPGASVKVSCKASGYTFTNYDINWVRQASGQGLEWMGWMNPNSGNTGYAQRFQGRVTMTRNTSINTAYMELSSLRSEDTAVYYCASSSGWYYFDYWGQGTLVTVSS
VL: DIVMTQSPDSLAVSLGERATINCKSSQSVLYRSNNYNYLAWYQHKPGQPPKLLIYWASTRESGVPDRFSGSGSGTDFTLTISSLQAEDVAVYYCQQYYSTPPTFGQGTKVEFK
notes: mAb
B9 was tested, and the Kd [1] was 0.4 nM, the EC50 (human ASGR-1 (wild type) [2]) was 11 nM and the “FACS Binding Geomean” value (human ASGR-1 (wild type) [3]) was 46000. For the same binder, the “FACS Binding Geomean” value [4] was 13500.

B10: 29H8 (antibody, V domains shown)
VH: QVQLVQSGAEVQKPGASVKVSCKASGYTFTNYDINWVRQATGQGLEWMGWMNPNSGNTGYAQRFQGRVTMTRNTSISAAYMELSSLRSEDTAVYYCASSSGWYYFDYWGQGTLVTVSS
VL: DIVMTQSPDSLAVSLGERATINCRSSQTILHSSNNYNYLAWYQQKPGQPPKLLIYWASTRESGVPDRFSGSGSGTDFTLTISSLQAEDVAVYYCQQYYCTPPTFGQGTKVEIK
notes: mAb
For B10, the Kd [1] was 1 nM, the EC50 (human ASGR-1 (wild type) [2]) was 1.9 nM and the “FACS Binding Geomean” value (human ASGR-1 (wild type) [3]) was 40900. The “FACS Binding Geomean” value [4] was 13200.

B11: 6G7 (antibody, V domains shown)
VH: QVQLVESGGGVVQPGRSLRLSCAASGFTFSSYGMHWVRQTPGKGLEWVAIISYVGKNKYYADSVKGRFTISRDNSKNTLYLQMNSLRAEDTAVYYCARRGNSYGGYGMDVWGQGTTVTVSS
VL: DIQMTQSPSSRSASVGDRVTITCQASQDISNYLNWCQQKPGKALKLLIYDASTLETGVPSRFSGSGSGTDFTFTISSVQPEDIATYYCQQYDNVPITFGQGTRLEIK
notes: mAb
In the case of B11, the Kd [1] is reported as 2 nM, the EC50 (human ASGR-1 (wild type) [2]) is reported as 0.6 nM and the “FACS Binding Geomean” value (human ASGR-1 (wild type) [3]) is reported as 38600. The “FACS Binding Geomean” value [4] was 15100.

B12: 48B12 (antibody, V domains shown)
VH: EVQLLESGGGLVQPGGSLRLSCAASGFTFSSYAMNWVRQAPGKGLEWVSAISGRGGNTFYADSVKGRFTISRDNSKNTLYLQMNSLRAEDTAVYYCAKRETYNWNYEGFDYWGQGTLVTVSS
VL: SYELTQPPSVSVSPGQTARITCSGDALPKKYAYWYQQKSGQAPVLVIYEDSKRPSGIPERFSGSSSGTMATLTISGAQVEDEADYYCNSTDSSGNHVVFGGGTKLTVL
notes: mAb
In the case of B12, the Kd [1] is reported as 0.3 nM, the EC50 (human ASGR-1 (wild type) [2]) is reported as 38 nM and the “FACS Binding Geomean” value (human ASGR-1 (wild type) [3]) is reported as 52500. The “FACS Binding Geomean” value [4] was 20500.

— patent publication US20190248902A1 (published 2019)
